In article PMC4840364 one finds response data, which are given here for one molecule.

This assay addresses glycoprotein Ibα (GPIbα) on human platelets, P07359. Description: flow cytometry on cells. Particulars: chain shown with the change, human platelets incubated 20 min, washed once, FITC-conjugated goat anti-mouse IgG, MFI of 10,000 cells, read off a plot. (In general: A flow cytometer gives signals particle by particle.)

B1: wild-type 5G6 Fab fragment (recombinant) H:T102A; H:T103A; H:T104A; H:T105A; L:D93A (protein)
chain 1: QVTLKESGPGILQPSQTLSLTCSFSGFSLSTSNMGVVWIRQPSGKGLEWLLHILWNDGKFYNPALKSRLTISKDTYNNQVFLKIANVDTADTATYYCARLFAAAASGYFDVWGAGTTVTVSS
chain 2: DIQMTQSPASLSASVGETVTITCRASGNIYNYLAWYQQKQGKSPQLLVYNAKTLADGVPSRFSGSGSGTQYSLKINSLQPEDFGSYFCQHFWATPWTFGGGTKLEIK
Regarding B1, the response ([mAb] about 37 nM (read from x axis), parent: est. 320) was found to be 8 a.u and the response ([mAb] about 110 nM (read from x axis), parent: est. 290) amounted to 10 a.u.
